Reference: patent US8444963B2 (priority 2006, dated 2013)
Positions count from the first letter of the chain named. In names and notes the source's numbering stands.

B1: NT01CX2047: C. novyi-NT extracellular lipase, the liposome-disrupting factor (SEQ ID NO: 1), expressed in E. coli with oligohistidine tag (protein, listed as Clostridium novyi)
chain: MQSKLKKFISTISVSLFTLASVLTFSMAKPVNAFAKENQKVSQNNYPIILCHGCNGWGRTENFGTVAFGARYYWGGNVDLQQKLIENGFTTYTAAVGPLSSNWDRACELYAQIKGGRVDYGEAHAKKHGHSRYGRYYRGFYPEWGTKDENGNIRKVHLIGHSQGGQTIRMLTTLLGQGKQEEISATGENTNELFKGGHDWVSGLITLASPHDGTTLADMKGTDAAAAIGIGAVGSMLGNISNSDIIFDLKVDQWGLKRKPSESFISYFNRCATSKMWNSKDICSVDLSTNGAVEQNKWVKAQPNVYYFSWACCGTIRNPISIFGHHMASPIRMSDKGLYNVQWALQAQLMGTYSRNNPRRAIPVIDSKWWPNDGYVNTISENGPKAGSTDEIVNYNGTPQIGKWNFMGVKDMDHEDIIGRHWNGAPNFFIDMAQMLRNLPVTE
modifications: oligohistidine tag
B2: S127G (protein, listed as Clostridium novyi)
chain: B1 chain with S162G

Columns and labels:
[1] = system: syngeneic CT26 colorectal tumors; assay: CT26 tumors in BALB/c mice treated with C. novyi-NT spores and free or liposomal drugs; type: in vivo, mouse; conditions: 300 million spores i.v., drug 10 mg/kg single i.v. dose 16 h later
Protocol: Animal models. […] Tumor volume was calculated as length×width^2×0.5.

[2] = Liposome-disruption assay (doxorubicin release from Doxil); type: biochemical; conditions: lysates of IPTG-induced E. coli incubated with liposomal doxorubicin
Protocol: Liposome-Disruption Assay. Samples were mixed with DOXIL™ liposomal doxorubicin (100 μl sample+5 μl DOXIL™ liposomal doxorubicin in a 96-well plate or 50 μl sample+2 μl DOXIL™ in a 384-well plate). Increase in fluorescence caused by the dequenching of released doxorubicin was kinetically measured over 30-60 minutes using excitation at 470 nm and emission at 590 nm (5). All measurements were performed at 37° C. in a fluorescence plate reader. Liposome-disrupting activity was defined as the maximum slope of the release curve.
Lipase Panel Experiment. Purified NT01CX2047 enzyme and nine other purified lipases were dissolved in 100 mM Tris-HCl, pH 7.5 to a concentration of 1 mg/ml. Fifty μl of Assay Buffer (100 mM Tris-HCl pH 7.5+0.125M NaCl) was pipetted into 384-well plates, followed by 2 μl of the relevant lipase and 1 μl of DOXIL. Samples were assayed in duplicate for liposome-disrupting activity as described above.
To test the liposome-disrupting activity of the lysates described above, we incubated them with liposomal doxorubicin. […] When this strain was cultured without selective antibiotics until the bacteria lost the expression vector by random segregation, the liposome-disrupting activity was lost (FIG. 4C). Moreover, the cells that had lost the plasmid were able to grow as robustly as the parental E. coli and the S127X mutant.

[3] = Lipase assay of E. coli lysates; type: biochemical; conditions: lysates of IPTG-induced E. coli clones
Text: FIG. 4A-4D. Functional analysis of liposomase. Plasmids carrying the wt or mutant forms of the NT01CX2047 gene were introduced into E. coli. “Cured” bacteria represent those originally containing the wt gene and grown in the absence of selective antibiotics until the plasmid was lost. Cellular lysates from three independent clones of each bacterial strain were generated after induction of expression by IPTG and used for the following: (FIG. 4A) Western blotting with an antibody to oligohistidine confirmed the presence of similar amounts of wt and mutant proteins in the bacteria. (FIG. 4B) Lipase activity was analyzed using the fluorescent lipase substrate, 1,2-dioleoyl-3-pyrenedecanoyl-rac-glycerol. (FIG. 4C) Liposome-disrupting activity was assessed using Doxil. (FIG. 4D) Liposome-disrupting activity of lipases purified from ten different organisms were assessed using Doxil. Means and standard deviations of data from at least two independent experiments are shown in (FIG. 4B) to (FIG. 4D).
Protein Expression. […]
Lipase Assay. […] Increase in fluorescence caused by catalytic release of pyrenedecanoic acid was kinetically measured over 2 hours using excitation at 320 nm and emission at 405 nm. All measurements were performed at 37° C. in a FluoStar Galaxy fluorescence plate reader. […]

[4] = system: E. coli; assay: Growth of E. coli expressing NT01CX2047 forms after IPTG induction; type: cell-based; conditions: after induction by IPTG
Protocol: Protein Expression. The expression vectors described above were transformed by heat shock into the Rosetta-gami(DE3)pLysS strain of E. coli (Novagen, Madison, Wis.). Three clones per expression construct were picked and each was cultured in 20 ml HyperBroth (AthenaES, Baltimore, Md.) under antibiotic selection (100 μg/ml ampicillin+34 μg/ml chloramphenicol) at room temperature. As a negative control, bacteria carrying the pLip plasmid were “cured” of their plasmid through growth in the absence of selective antibiotics. Loss of plasmid was verified by PCR. Expression was induced using IPTG for 1 hour, reaching an OD600˜0.2, after which the bacteria were pelleted by centrifugation and resuspended in 100 mM Tris-HCl, pH 7.5. Lysates were prepared by sonication in a Bioruptor sonicating bath (Diagenode, Belgium) and centrifugation at ˜14,000 g was performed to remove insoluble matter. […]
To examine the properties of the protein encoded by NT01CX2047, we cloned its ORF into an inducible expression vector which was then introduced into a genetically modified E. coli strain that permitted expression of C. novyi-NT genes (which have a codon usage very different than that of E. coli). […] Lysates from these cells were tested for lipase activity as measured by hydrolysis of 1,2-dioleoyl-3-pyrenedecanoyl-rac-glycerol. […]

Row | Molecule | tumor response (tumor volume) [1] | liposome-disrupting activity [2] | lipase activity [3] | growth of the expressing E. coli cells (apparent toxicity of gene product) [4]
1 | COc1cccc2c1C(=O)c1c(O)c3c(c(O)c1C2=O)C[C@@](O)(C(=O)CO)C[C@@H]3O[C@H]1C[C@H](N)[C@H](O)[C@H](C)O1 [doxorubicin] | Neither doxorubicin nor Doxil alone resulted in prolonged therapeutic effects |  |  | 
2 | B1 |  | potent activity | exhibited lipase activity | grew poorly
3 | B2 |  | retained substantial liposome-disrupting activity | devoid of lipase activity | same poor growth as wild-type NT01CX2047
